Results published in the nanobody polyreactivity screen of Harvey et al. (2022).

Test: yeast display, Sf9 membrane polyspecificity reagent, FACS + sequencing; frameworks hold sequencing errors
Method in brief: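 Genes from sorted yeast were amplified by colony PCR, read by MiSeq 2 × 250 sequencing and filtered on CDR length. These cells carried a synthetic nanobody library in Saccharomyces cerevisiae BJ5465 and were sorted by FACS into low and high (top ~1%) gates on anti-HA and streptavidin fluorescence. Polyreactivity is labelled according to the gate of origin.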

Sequence	polyreactivity (PSR sort gate)
QVQLVESGGGLVQAGGSLRLSCAPSGRIFEIYAMGWYRQAPGKESELVAAISWRGVSTYYADSVKGRFTISRDNAKNTVYLQMNSLKPEDTAVYYCNKDVDYFWYVEYDYWGQGTQVTVSS	low polyreactivity
QVQLVESGGGLVQAGGSLRLSCSDSGSTFPYHAMGWYRPAPGKERELVAAIDSSDGITYYADSVKGRFTISRDNAKNTVYLQMNRLKPEDTAVYYCAAEDYEAGYDFWGQGTQVTVSS	high polyreactivity
QVQLVESGGGLVQAGGSLRLSCAASGSIFQFYAMGWYRQAPGKERELVAVITTSGVSTYYADSVKGRFTISRDNAKNTVYLQMNSLKPEDTAVYYCAADDYYLAGDYWGQGTQVTVSS	low polyreactivity
QVQLVESGGGLVQAGGSLRLSCAASGSIFNTNAMGWYRQAPGKERELVAAISKNAGRTFYADSVKGRFTISRDNAKNTVYLQMNSLKPEDTAVYYCAARGVGPQPGYQRFNYWGQGTQVTVSS	high polyreactivity
QVQLVESGGGLVQAGGSLRLSCAASGSIFVRNGMGWYRQAPGKERELVASFTSGTITYYADSVKGRFTISRDNARNTVYLQMNRLKPDDTAVYYCAARRDRGRVKFYYWGQGTQVTVSS	high polyreactivity
QVQLVESGGGLVQAGGSLRLSCAASGSTFNIYAMGWYRQAPGKERELVATISWTGGRTFYADSVKGRFTISRDNAKNTVYLQMNSLKPEDTAVYYCNKASTGGYDYWGQGTQVTVSS	high polyreactivity
QVQLVESGGGLVQAGGSLRFSCVASGSIFRGNAKGWYRQAPGKERELVASISKGGGSTYYADSVKGRFLISRDNAKNTVYLQMNSLKPEDTAVYYCAARGGLDGIQYDYDYWGQGTQVTVSS	low polyreactivity
QVQLVESGGGLVQAGGSLRLSCAASGRTFRANAMGWYRQAPGKERELVAAISKRGGNTYYADSVKGRFTISRDNAKNTVYLQMNSLKPEDTAVYYCAADFIGRDYDYWGQGTQVTVSS	high polyreactivity
QVQLVETGGGLVQAGGSLRLSCAASGFIFVDYAMGWYRPAPGKERELVAAITSNDDRTYYADSVKGRFTISRDNAKNTVYLQMNSLKPEDTAVYYCAAGGWGATADATFTYLYDYWGQGTQVTVSS	low polyreactivity
QVQLVESGGGLVQAGGSLRLSCAASGSIFVGYTMGWYRQAPGKERELVADITYNGGTTYYADSVKGRFTISRDNAKNTVYLQMNSLKPEDSAVYYCAADYYYGWFPVYYWGQGTQVTVSS	high polyreactivity
QVHLVESGGGLVQAGGSLRLSCAASGRTFYYYAMGWYRQAPGKERELVAAISGSGTNTYYADSVKGRFTISRDNAKNTVYLQMNRLKPEDTAVYYCAAEYFGFYTDGGVFDLYYWGQGTQVTVSS	low polyreactivity
QVQLVESGGGLVQAGGSLRISCAASGFAFSYYAMGWYRQAPGKEREFVASIDWSGGSTYYADSVKGRFTISRDNAKNTVYLQMNSLKPEDTAVYYCAAELDYFPGYDYWGQGTQVTVSS	low polyreactivity
QVQLGESGAGLVQAGGSLRLSCAASGRIFLIKAMGCDRQAPGKERELVAAIRRSVGSTYYADSVKGRFTISRDNAKNTVYLQMNSLKPEDTAVYYCATRDYYTYTGRTRYYYWGQGTQVTVSS	high polyreactivity
QVQLVESGGGLVQAGGSLRLSCAASGSIFGYYAMGWYRQAPGKERELVASISWSGTSTYYADSVKGRFTISRDNAKNTVYLQMNSLKPEDTAVYYCATKGLFTNSPLYVSAYDYWGQGTQVTVSS	low polyreactivity
QVQLVESGGGLVQAGGSLRLSCAASGFTFHPNSMGWYRQAPGKERELVASISSRGGSTYYADSVKGRFTISRDNAKNTVYLQMNSQKPEYTAVYYCNVRGTQYYGHIGFYYWGQGTQVTVSS	low polyreactivity
QVQLVESGGGLVQAGGSLRLSCAASGFILTSNAMGWYRQAPGKERELVAAITRNGARTYYADSVKGRFTISRDNAKNTVYLQMNSLKPEDTAVYYCAAETVSYWWWGQDIPYYYWGQGTQVTVSS	high polyreactivity
QVQLVESGGGLVQAGGSLRLSCAASGSTFRYNAMGWYRQAPGKERELVAAITSGGGTNYADSVKGRFTISRDNAKNTVYLQMNSLKPEDTAVYYCAAGAWRGPYSGYYYWGQGTQVTVSS	low polyreactivity
QVQLVESGGGLVQAGGSLRLSCAASGITLVRYAMGWYRQAPGKERELVAAISSSGGSTYYADSVKGRFTISRDTAKNTVYLQMNSLKPEDTAVYYCNAYVHSRRVEFNYWGQGTQVTVSS	high polyreactivity
QVQLVESGGGLVQAGGSLRLSCAASGSIFRYNTKGWYRQATGKERELDAAINWSGGNTYYADSVKGRFTISRDNAKNTVYLQMNSLKPEDTAVYYCAARWPSYVSYRYYTKYDYWGQGTQVTVSS	high polyreactivity
QVQLVESGGGLVQAGCSLRLICAASGIIFRRYAMGWYRQAPGKERELVAAISSSGGSTYYADSVKGRFTISRDNAKNTVYLQMNSLKPEDTAVYYCNAVTSVQARPRNYYYWGQGTQVTVSS	high polyreactivity
QVQLVESGGGLVQAGGSLRLSCAASGRSFYRYVMGWYRQAPGTERELVAAMTWSGGSTYYADSVKGRFTISRDNAKNTVYLQMNSLKPEDTAVYYCAADWSTWGVDYWGQGTQVTVSS	low polyreactivity
QVQLVESGGRLVQAGGSRRLSCAGSGSIFHHNAMGSYRQAPGKESELVAAISSRSGNTYYADSVKGRFTISRDNAKNTVYLQMNSLKPEDPAVYYCAAGIRLSYSTYDSWGQGTQVTVSS	high polyreactivity

Sequence	polyreactivity (PSR sort gate)
QVQLVESGGGLVQAGGSLRLSCAASGIILPYYAMGWYRQAPGKERELGASISYDGTSTYYADSVKGRFTISRDNAKNTVYLQMNSLKPEDTAVYYCAAVQWWPRASYSMDYWGQGTQVTASS	low polyreactivity
QVQLVESGGGLVQAGGSLRLSCAASGRIFYSYAMGCSRQAPGKERELVAAITRGGRTKYADSVKGRFTISRDNEKNTVYLQMNSLKPEDTAVYYCAAVKFYTEYNQYDYWGQGTQVTVSS	high polyreactivity
QVQLVESGGGLVQAGGSLRLSCDASGSIFMYNAMGWYRQAPGKERELVAAISSSSDRTYYADSVKGRFTISRDNAKKTVYLQMNSLKPEDTAVYYCNVVYIGWRKYEYWGQGTQVTVSS	high polyreactivity
QVQLVESGGGLVQAGGSLRLSCAASGSTFDYNAMGWYRQAPGKEREFVAAISFSGSSTYYADSVKGRFTISRDNAKNTVYLQMNSLKPEDTAVYYCAKKVFASYRGYGYWGQGTQVTVSS	high polyreactivity
QVQLVESGGGLVQAGGSLRLSCAASGRIFWDYAMGWYRKAPGKERELVAVITFSGDSTYYADSVKGRFTISRDNAKNTVYLQMNSLKPEDTAVYYCAAARAIRQFWYVATFEYWGQGTQVTVSS	low polyreactivity
QVQLVESGGRLVQAGGSLRLSCAASGFIFQYYTMGWYRQAPGKERELVAGISRSGGSTYYADSVKGRFTISRDNAKNTVYLQMNSLKPEDTAVYYCAAKIRTSDMGYWGQGTQVTVSS	high polyreactivity
QVQLVESGGGLVQAGGSLRLSCAASGSTFDIYAMGWYRQAPGKERELVAAISVSDVDTYYADSVKGRFTISRDNAKNTVYLQMNSLKPEDTAVYYCNAERFWPWDYDYWGQGTQVTVSS	high polyreactivity
QVQLVESGGGLVQAGGSLRLSCAASGRTFIANAMGWSRQAPGKERELVAAISWSGGSTYYADSVKGRFTISRDNAKNTVYLQMNSLKPEDTAVYYCTAKRFRTGFDYWGQGTQVTVSS	low polyreactivity
QVQVVESGGGLVQAGGSLRLSCAASGSTFRYYAMGWYRQAPGKERELVAGISKVGGRTYADSVKGRFTISRDNAKYTVYLQMNSLKTEDTAVYYCAADAVRRTPGYDYWGHGTQVTVSS	high polyreactivity
QVQLVESGGGLVQAGGSLRLSCAASGRTFYPYTMGWYRQAPGKEMELVAAITTSTGNTYYADSVKGRFTISRDNAKNNVYLQMNILKPEDTSVYYCAADTVWRLDYWGQGTKVTVSS	low polyreactivity
QVQLVESGGGLVQAGGSLRLSCAASGFTFRIYAMGWYRQAPGKERELVAAITSGGRTYYADSVKGRFTISRDNAKNTVYLQMNSLKPEDTAVYYCAALYFTRDRYDYWGQGTQVTVSS	high polyreactivity
QVQLVESGGGLVQAGGSLRLSCAASGSIFLSNAIGWYRQAPGKERELVADIDWTGGDTYYADSVKGRFTISRDNAKNTVYLQMNSLKPEDTAVYYCASDYGYRNLLTEYGYWGQGTKVTVSS	low polyreactivity
QVQLQESGGGLVHAGGSLRLSCAASVTISFINMMGWYRQAPGRERELDASINFGANTNYADSVKGRFTISRDNAKNSVYLQMNSLKPEDTAVYYCAVYDFDAYTLYYWGQGTLVTVSS	high polyreactivity
QVQLVESGGGLVQAGGSLRLSCAASGSIFSGYAMGWYRQAPGKESDLVAAISGSGGSTFYADSVKGRFTISRDYAKNTVYLQMNSLKPEDTAVYFCAARRIAPYGRYDYWGQGTQVTVSS	low polyreactivity
QVQLVESGGGLVQAGGSLRLSCAASGRSFSPYAMGWYRQAPGKERELVAAISYDDGITYYADSVKGRFTISRDTAKNTVYLQMNSLKPEDTAVYYCAADSVTRPAGDYWGQGTQVTVSS	low polyreactivity
QGQLVESGGGLVQAGGSLRLKCAASVFTFQFYDMGWYRQAPGKEMEFVATITWRAGSTYYADSVKGRFTISRDNAKNTVYLQMNSLKPEDTAVYYCIADYYRHSLDYDYVGYDYWGQGTQVTVSS	low polyreactivity
QVQLVESGGRLVQAGGSLRLSSAASGRTFTSYAMGWYRQSPGKERELVAAISRRGGSTYYADSVKGRFTISRDNAKNTVYLQMNSLKPEDTAVYYCNKATRYYLVELNYWGQGTQVTVSS	high polyreactivity
QVQLVESGGGLVQAGGSLRLSCAASGFIFRDYVMGWYRQAPGKERELVAAISYRGGSTNYADSVKGRFTISRDNAKNTVYLQMNSLKPEDTAVYSCAADQVHKREYDYWGQGTQVTVSS	low polyreactivity
QVQLVESGGGLVQAGGTLRLSCSATGYIFWSYAMGGYRQAPGKERELVAGITASGGSTYYADSVKGRFTISRDNAKNTVYLQMNSLKPEDTAVSYCAVALRSTPRTREVRPSPRVYYWGQGTQVTVSS	high polyreactivity
QVQLVESGGGLVQAGGSLRLSCAASGGIFSSYAMGWYRPAPGKERELVAAIDSDGTTYYADSVKGRFTISRDNAKNTVYLQMNSLKPEDTAVYYCATGYPVRYRGYLNWSYYAYDYWGQGTQVTVSS	low polyreactivity
QVQLVESGGGLVQAGGSLRLSCAASGSTFGTYAMGWYRQAPGKERELVAAITSGGSTDYADSVKGRFTISRDNAKNTVYLQMNSLKPEDTAVYYCNATWELLSYYYLFWGYDYWGQGTQVTVSS	low polyreactivity
